From the RNAGym collection of RNA variant scans (doi:10.1073/pnas.2313332121)
Variants at the floor of the assay were thinned out.

B1: TPR 5TU (parent)
chain: GGAUCUUCUCGAUCUAACAAAAAAGACAAAUCUGCCACAAAGCUUGAGAGCAUCUUCGGAUGCAGAGGCGGCAGCCUUCGGUGGCGCGAUAGCGCCAACGUUCUCAACUAUGACACGCAAAACGCGUGCUCCGUUGAAUGGAGUUUAUCAUG

Variants of: B1
Experiment: polymerase ribozyme fitness, log enrichment relative to wild type (log ratio); higher = more active; in vitro selection for triplet polymerase activity
In short: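 Each subunit of a heterodimeric triplet polymerase ribozyme was represented by a PCR-built, transcribed mutant library that underwent triplicate single-round in vitro selection with frozen incubation at −7 °C. Extended constructs were recovered by gel excision, streptavidin-bead capture and RT-PCR, and Illumina sequencing of input and output libraries kept genotypes with ≥10 input reads and ≥1 read per output. Fitness is the logarithm of genotype enrichment relative to wild-type enrichment, from inverse-variance-weighted replicate averages, with a logarithm base of 2.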

Row | Variant | polymerase ribozyme fitness (log ratio)
1 | GGAUCUUCUCGAUCUAACAAAAAAGACAAAUCUGCCACAAAGCUUGAGAGGAUCUUCGGAUGCAGAGGCGGCAGUCUUACGUGGCGAGAUAGCGCCAUCGUUGUCAACUAUGACACGCAAAACGCGUGCUCCGUUGAAUGGAGUGUAUCAUG [C51G C75U C79A G80C C87A A98U C103G U145G] | ≤ -4.2
2 | GGAUCUUCUCGAUCUAACAAAAAAGACAAAUCUGCCACAAAGCUUGAGAGGAUCUUCGGAUGCAGAGGCGGCAGCCUUGGGUGGCGCGAUAGCGCGAACGUUCUCAACUAUGACACGCAAAACGCGUGCUCCGUUGAAUGGAGUUUAUCAUG [C51G C79G C96G] | ≤ -4.2
3 | GGAUCUUCUCGAUCUAACAAAAAAGACAAAUCUGCCACAAAGCUUGAGAGGAUCUUCGGAUGCAGAGGCGGCAGCCUUCGGUGGCGCGAUAGCGCAAACGUUCUCAACUAUGACACGCAAAACGCGUGCUCCGUUGAAUGGAGUUUCUCAUG [C51G C96A A147C] | -3.82
4 | GGAUCUUCUCGAUCUAACAAAAAAGACAAAUCUGCCACAAAGCUUGAGAGGAUUUUCGGAUGCAGAGGCGGCAGCCUUCGGUGGCGCGAUAGCGCCAGCGUUCUCAACUAUGACACGCAAAACGCGUGCUCAGUGGAAUGGAGUUUAUCAUG [C51G C54U A98G C132A U135G] | ≤ -4.2
5 | GGAUCUUCUCGAUCUAACAAAAAAGACAAAUCUGCCACAAAGCUUGAGAGGAUCUUCGGAUCCAGAGGCGGCAGCCUUCGGUGGAGCGAUAGCGCCAACGUUCUCAACUAUGACACGCAAAACGCGUGCUCCGUUGAAUGGAAUUUAUCAUG [C51G G62C C85A G143A] | -1.5
6 | GGAUCUUCUCGAUCUAACAAAAAAGACAAAUCUGCCACAAAGCUUGAGAGGAUCUUCGGAUGCAGAGGCGGCAGCCUUCGGUGGCGCGAUAGCGCCAACGUUCUCAACUAUGACACGCAAAACGUGUGCUCCGUUGAAUGUAGUUUAUCAUG [C51G C125U G141U] | -3.54
7 | GGAUCUUCUCGAUCUAACAAAAAAGACAAAUCUGCCACAAAGCUUGAGAGGAUCUUCGGAUGUAGAGGCGGCAGCCUUCGGUGGCGCGAUAGCGCCAACGUUCUCAACUAUGACAUGCAAAACGCGUGCUCCGUUGAACGGAGUUUAUCAUG [C51G C63U C116U U139C] | ≤ -4.2
8 | GGAUCUUCUCGAUCUAACAAAAAAGACAAAUCUGCCACAAAGCUUGAGAGGAUCUUCGGAUGCAGAGGCGGCAGCCUUCGGUGGUGCGAUAGCGCCAACGUUCUCAACUAUGACACGCAAAACGCGUGCUCCGUUGAAUGGAGGUUAUCAUG [C51G C85U U144G] | -1.3
9 | GGAUCUUCUCGAUCUAACAAAAAAGACAAAUCUGCCACAAAGCUUGAGAGGAUCUUCGGAUGCAGAGGCGGCAGCCUUCGGUGGCGCGAUAGCGCCAACGUUCUCGACUAUGACACGCAAAACGCGUGCUCCGUUGAAUGGAGAUUAUCAUG [C51G A106G U144A] | -3.29
10 | GGAUCUUCUCGAUCUAACAAAAAAGACAAAUCUGCCACAAAGCUUGAGAGGAUCUUCGGAUGCAGAGGCGGCAGCCUUCGGUGGCGAGAUAGGGCCAACGUUCUAAACUAUGUCACGCAAAACGCGUGCUCCGUUGAAUGGAGUUUAUCAUG [C51G C87A C93G C105A A113U] | ≤ -4.2
11 | GGAUCUUCUCGAUCUAACAAAAAAGACAAAUCUGCCACAAAGCUUGAGAGGAUCUUCGGAUGCAGAGGCGGCAGCAUUCGGUGGCGUGAUAGCGCCAACGUUCUCAACUAUGACACGCAAAACGCGUGCUCCGUUGAAUGGAGUUUAUCAUG [C51G C76A C87U] | ≤ -4.2
12 | GGAUCUUCUCGAUCUAACAAAAAAGACAAAUCUGCCACAAAGCUUGAGAGGAUCUUCGGAUGCAGAGGCGGCAGCCUUCGGUGGUGCGAUAGCGCCAACGUUCUCAACUAUGACACGCAAAACGCGUGCUCCGUUGAAUGGAGUUUAUCAUG [C51G C85U] | -1.91
13 | GGAUCUUCUCGAUCUAACAAAAAAGACAAAUCUGCCACAAAGCUUGAGAGGAUCUUCGGAUGCAGAGGCGGCAGCCUUCGGUGGCGCGAUAGCGCCAACGUUCUCAACUAUGACACGCAAAACGUGUGCUCCGUUGAAUGGAGCUUAUCAUG [C51G C125U U144C] | -4.07
14 | GGAUCUUCUCGAUCUAACAAAAAAGACAAAUCUGCCACAAAGCUUGAGAGGAUCUUCGGAUGCAGAGGCGGCAGCCUUGGGUGGCUCGAUAGCGCCAACGUUCUCAACUAUGAUACGCAAAACGCGUGCUCCGAUGAAUGGAGUUUAUCAUG [C51G C79G G86U C114U U134A] | ≤ -4.2
15 | GGAUCUUCUCGAUCUAACAAAAAAGACAAAUCUGCCACAAAGCUUGAGAGGAUCUUCGGAUGCAGAGGCGGCAGCCUUCGGUGGCGAGAUAGCGCCAACGUUCUCAACUAUGACACGCAAAACGCGUGCUCCGUUGAAUGGAGUUUAUCAUG [C51G C87A] | ≤ -4.2
16 | GGAUCUUCUCGAUCUAACAAAAAAGACAAAUCUGCCACAAAGCUUGAGAGGAUCUUUGGAUGCAGACGCGGCAGCCUUCGGUGGCGGGAUGGCGCCAACGUUCUCAACUAUGACACGCAAAACGCGUGCUCCGUUGAAUGGAGUUUAUCAUG [C51G C57U G67C C87G A91G] | ≤ -4.2
17 | GGAUCUUCUCGAUCUAACAAAAAAGACAAAUCUGCCACAAAGCUUGAGAGGAUCUUCCGAUGCAGAGGCGGCAGCCUUCGGUGGCGCGAUAGCGCCAACGUUCUCAACUAUGACACGCAAAACGCGUGCUCCGUUGAAUGGAGUUUAUCAUG [C51G G58C] | -1.42
18 | GGAUCUUCUCGAUCUAACAAAAAAGACAAAUCUGCCACAAAGCUUGAGAGGAUCUUCGGAUGCAGAGGCGGCAGCCUUCUGUGGCGCGAUAGCUCCAACGUUCUCAACUAUGACACGCAAAACGCGUGCUCCGUUGAAUGGAGUUUAUCAUG [C51G G80U G94U] | ≤ -4.2
19 | GGAUCUUCUCGAUCUAACAAAAAAGACAAAUCUGCCACAAAGCUUGAGAGGAUCUUCGGAUGCAGAGGCGGCAGCCUUAGGUGGCGCGAUAGCGCCAACGUUCUCAACUAUGACACGCAAAACGCGUGCUCCGUUGAAUGGAGUUUAUCAUG [C51G C79A] | ≤ -4.2
